Here are results for seven substances from US9260500B2, “Peptide and use thereof” (Takeda Pharmaceutical Company Limited, priority 2009, dated 2016).

The target in test [1] is T1, human Y2 receptor (Homo sapiens, UniProt P49146).
T1 construct: expressed in transfected cells; membrane fraction
T1 sequence (P49146 1-381): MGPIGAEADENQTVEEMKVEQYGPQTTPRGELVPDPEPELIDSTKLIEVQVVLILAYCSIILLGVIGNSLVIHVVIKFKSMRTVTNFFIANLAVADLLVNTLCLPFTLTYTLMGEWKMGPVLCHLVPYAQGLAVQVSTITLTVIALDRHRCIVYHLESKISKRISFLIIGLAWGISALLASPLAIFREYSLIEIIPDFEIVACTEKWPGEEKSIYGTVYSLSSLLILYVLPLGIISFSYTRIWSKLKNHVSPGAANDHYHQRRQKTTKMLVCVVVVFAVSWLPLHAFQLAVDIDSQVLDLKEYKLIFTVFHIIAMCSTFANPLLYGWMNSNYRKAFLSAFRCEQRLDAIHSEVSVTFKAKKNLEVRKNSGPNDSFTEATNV
Kind of test: Human Y2 Receptor G Protein Binding Assay (GBA), [35S]GTPγS. The format is biochemical. To be noted: EC50 of test compound/EC50 of PYY(3-36) (PYY3-36 taken as 1), hY2R/CHO membrane fraction. The procedure: (3) Test Method: Human Y2 Receptor G Protein Binding Assay (GBA)
The agonist activity of the compound of the present invention against the human Y2 receptor was measured by the method described below.
2 μL of the test compound, serially diluted with DMSO from 100 μM to 1 nM, was dispensed to a 96-well plate, and 100 μL of the membrane fraction, previously diluted with an assay buffer (50 mM Tris, 5 mM MgCl2, 150 mM NaCl, […], 0.03% NaN3, 0.1% BSA, pH 7.4) to 1 μg protein/mL, was dispensed thereto, subsequently, 100 μL of a [^35S]GTPγS (NEG030H, PerkinElmer, previously diluted with the assay buffer to 1 nM) was added, and they were mixed by pipetting. After incubation at room temperature for 120 minutes, the mixture was filtered through the cell harvester FilterMate (PerkinElmer) using the UniFilter-96 GF/C (PerkinElmer), and the filter was washed 3 times with a filtering buffer (50 mM Tris, 5 mM MgCl2, 150 mM NaCl, 0.03% NaN3, 0.05% CHAPS, pH 7.4). Thereafter, UniFilter-96 GF/C was dried in a mechanical drier for 1 hour, 15 μl of the liquid scintillator MicroScint O (PerkinElmer) was added to each well, and a measurement was taken using TopCount (PerkinElmer). The data obtained were analyzed using Prism to calculate the EC50 value. The agonist activity of the test compound was expressed as a ratio to the EC50 value of PYY3-36 taken as 1 (EC50 Ratio: EC50 of test compound/EC50 of PYY(3-36)). The results are shown in the GBA column in Table 5 (Table 5-1-Table 5-10).
Background: GTPγS is a poorly hydrolysed GTP analogue; its binding reports G protein activation.

The target in test [2] is T1, human Y2 receptor. Briefly: Receptor Binding Assay (RBA) for Human Y2, [125I]-PYY displacement on hY2R/CHO membrane fraction. As to conditions: IC50 of test compound/IC50 of PYY(3-36) (PYY(3-36) taken as 1). As to the method:
(1) Construction of Expression Plasmid for the Human Y2 Receptor (Y2R) Gene
PCR was performed by a reaction using Pfu DNA polymerase ([…]), with a human brain cDNA (PT3158-1, Clontech) as the template, wherein synthetic DNAs with the following sequences were used as a combination of 5′ and 3′ primers, whereby the human Y2R gene was cloned. Primer 1 was prepared on the basis of base sequence information on the human Y2R gene (Refseq ID No. NM_000910) with the addition of Kozak's consensus sequence. Primer 2 was prepared on the basis of base sequence information on the human Y2R gene.
The PCR product obtained was cloned into pCR4-Blunt-TOPO (Invitrogen), and the plasmid was extracted according to a conventional method (QIAwell 8 Plus, QIAGEN). After confirming the base sequence, the human Y2R gene was re-cloned by a PCR reaction with the plasmid DNA as the template, using Primer 1 as the 5′ primer and Primer 2 as the 3′ primer. The PCR was performed using the Pyrobest DNA polymerase (TaKaRa). The PCR product obtained was re-cloned into pCR-Blunt II-TOPO (Invitrogen), and the plasmid was extracted according to a conventional method (QIAGEN). An Xho I restriction enzyme digestion site and an Spe I restriction enzyme digestion site are present in the cloning site of the pCR-Blunt II-TOPO; a plasmid clone was selected wherein the human Y2R gene was inserted in the orientation such that the Xho I restriction enzyme digestion site was positioned upstream of Primer 1, and the Spe I restriction enzyme digestion site was positioned downstream of Primer 2. After confirming the base sequence, the plasmid clone was digested with the restriction enzymes Xho I and Spe I to yield a DNA fragment. The DNA fragment was inserted into the animal cell expression vector pAKKO-111H (the same plasmid as pAKKO-1.111H described in Biochem. Biophys. Acta, Hinuma, S. et al., 1219, 251-259 (1994)), which was enzymatically digested with Sal I and Spe I, to yield the expression plasmid pAK-hY2R (pAKKO-111H/Y2R).
(2) Test Method: Receptor Binding Assay (RBA) for Human Y2
A human NPY2R (hY2R) stable expression cell line was acquired by transducing the animal cell expression plasmid pAK-hY2R into CHO/dhfr-cells using the CellPhect Transfection kit (Amersham Pharmacia Biotech Co.). First, 240 μl of Buffer A (attached to the CellPhect Transfection kit) was added to 9.6 μg of the plasmid DNA dissolved in 240 μl of distilled water; this mixture was stirred and allowed to stand for 10 minutes, after which 480 μL of Buffer B (attached to the CellPhect Transfection kit) was added, and the mixture was vigorously stirred to form a liposome containing the DNA. 2.5×10^5 or 4×10^5 CHO/dhfr− cells (obtained from ATCC) were seeded to 60 mm petri dishes, and cultured in Ham's F-12 medium (Sigma Co.) containing 10% fetal bovine serum (BioWest Co.) at 37° C. in 5% gaseous carbon dioxide for 1 day, after which 480 μL of the liposome was added drop by drop on to the cells in each petri dish. This was cultured at 37° C. in 5% gaseous carbon dioxide for 6 hours, after which the cells were twice washed with serum-free Ham's F-12 medium; 3 mL of 15% glycerol was added onto the cells in the petri dish and treated for 2 minutes. This was again washed 3 times with serum-free Ham's F-12 medium, after which the cells were cultured in Ham's F-12 medium containing 10% fetal bovine serum at 37° C. in 5% gaseous carbon dioxide. The cells were dispersed by trypsinization and recovered from the petri dishes, and seeded to a 6-well plate at 2.5×10^4 or 4×10^4 cells per well; cultivation was begun in Dulbecco's modified Eagle medium <DMEM> medium (Sigma Co.) containing dialyzed 10% fetal bovine serum (Invitrogen Co.) at 37° C. in 5% gaseous carbon dioxide. Since plasmid-introduced transformant CHO cells grow in the medium, whereas cells without plasmid introduction die gradually, about 20 colonies of transformed CHO cell that had grown 9-13 days after the start of the cultivation were isolated. […]

Starred links: 1 amine or outer side, 2 acyl side, 3 side chain; linkers in the order of their positions; H or OH if unused. Non-standard residues stand in square brackets, D forms with d. No end group written: not given here. *: point of attachment. 4‑Guanidinomethylbenzoyl = N=C(N)NCc1ccc(C(=O)*)cc1; tBuAla = CC(C)(C)C[C@H](N)C(=O)O; 4Pal = N[C@@H](Cc1ccncc1)C(=O)O; Aad = N[C@@H](CCCC(=O)O)C(=O)O; Cha = N[C@@H](CC1CCCCC1)C(=O)O; Isonicotinoyl = O=C(c1ccncc1)*; Suc = O=C(CCC(=O)[*:2])[*:1]; 4Amb = NCc1ccc(C(=O)O)cc1; Iva = CC[C@](C)(N)C(=O)O; Nle = CCCC[C@H](N)C(=O)O; Aib = CC(C)(N)C(=O)O; Ahx = NCCCCCC(=O)O

Regarding “3-Carboxypropionyl-[Acp22, D-Pro24, Cha27,36, Leu(Me)28, Lys30, Aib31]-PYY(22-36) (Suc-[Ahx]S[dP]RH[Cha][tBuAla]NK[Aib]TRQR[Cha]-NH2; SMILES C[C@@H](O)[C@H](NC(=O)C(C)(C)NC(=O)[C@H](CCCCN)NC(=O)[C@H](CC(N)=O)NC(=O)[C@H](CC(C)(C)C)NC(=O)[C@H](CC1CCCCC1)NC(=O)[C@H](Cc1c[nH]cn1)NC(=O)[C@H](CCCNC(=N)N)NC(=O)[C@H]1CCCN1C(=O)[C@H](CO)NC(=O)CCCCCNC(=O)CCC(=O)O)C(=O)N[C@@H](CCCNC(=N)N)C(=O)N[C@@H](CCC(N)=O)C(=O)N[C@@H](CCCNC(=N)N)C(=O)N[C@@H](CC1CCCCC1)C(N)=O) [compound No. 185]”, the “GBA EC50 Ratio” value in the test with human Y2 receptor [1] was found to be 1.2. Also, in the test with human Y2 receptor [2], the “RBA IC50 Ratio” value was 1.7.
Consider “4-Aminomethylbenzoyl-[Ala26, Ile28, VAl31]-PYY(25-36) ([4Amb]RAYINLVTRQRY-NH2; N-terminus assumed; SMILES CC[C@H](C)[C@H](NC(=O)[C@H](Cc1ccc(O)cc1)NC(=O)[C@H](C)NC(=O)[C@H](CCCNC(=N)N)NC(=O)c1ccc(CN)cc1)C(=O)N[C@@H](CC(N)=O)C(=O)N[C@@H](CC(C)C)C(=O)N[C@H](C(=O)N[C@H](C(=O)N[C@@H](CCCNC(=N)N)C(=O)N[C@@H](CCC(N)=O)C(=O)N[C@@H](CCCNC(=N)N)C(=O)N[C@@H](Cc1ccc(O)cc1)C(N)=O)[C@@H](C)O)C(C)C) [compound No. 39]”, for which, in the test with human Y2 receptor [1], the “GBA EC50 Ratio” value was found to be 4.0. The “RBA IC50 Ratio” value with human Y2 receptor [2] was 7.2.
With “4-Guanidinomethylbenzoyl-[Iva25, Cha27,36, Aib28,31, Lys30]-PYY(25-36) ({4‑Guanidinomethylbenzoyl}-[Iva]H[Cha][Aib]NK[Aib]TRQR[Cha]-NH2; SMILES CC[C@](C)(NC(=O)c1ccc(CNC(=N)N)cc1)C(=O)N[C@@H](Cc1c[nH]cn1)C(=O)N[C@@H](CC1CCCCC1)C(=O)NC(C)(C)C(=O)N[C@@H](CC(N)=O)C(=O)N[C@@H](CCCCN)C(=O)NC(C)(C)C(=O)N[C@H](C(=O)N[C@@H](CCCNC(=N)N)C(=O)N[C@@H](CCC(N)=O)C(=O)N[C@@H](CCCNC(=N)N)C(=O)N[C@@H](CC1CCCCC1)C(N)=O)[C@@H](C)O) [compound No. 252]”, the “GBA EC50 Ratio” value with human Y2 receptor [1] is recorded as 2.8. Further, the “RBA IC50 Ratio” value in the test with human Y2 receptor [2] was 6.3.
As to “4-Guanidinomethylbenzoyl-[Nle25, Cha27,28,31,36, Arg30]-PYY(25-36) ({4‑Guanidinomethylbenzoyl}-[Nle]H[Cha][Cha]NR[Cha]TRQR[Cha]-NH2; SMILES CCCC[C@H](NC(=O)c1ccc(CNC(=N)N)cc1)C(=O)N[C@@H](Cc1c[nH]cn1)C(=O)N[C@@H](CC1CCCCC1)C(=O)N[C@@H](CC1CCCCC1)C(=O)N[C@@H](CC(N)=O)C(=O)N[C@@H](CCCNC(=N)N)C(=O)N[C@@H](CC1CCCCC1)C(=O)N[C@H](C(=O)N[C@@H](CCCNC(=N)N)C(=O)N[C@@H](CCC(N)=O)C(=O)N[C@@H](CCCNC(=N)N)C(=O)N[C@@H](CC1CCCCC1)C(N)=O)[C@@H](C)O) [compound No. 76]”, the “GBA EC50 Ratio” value with human Y2 receptor [1] came to 4.5. Besides, the “RBA IC50 Ratio” value with human Y2 receptor [2] was found to be 7.2.
For the substance “4-Pyridinecarbonyl-[Glu23, D-Pro24, Nle25, Pya(4)26, Cha27,36, Aib28,31, Lys30]-PYY(23-36) (Isonicotinoyl-E[dP][Nle][4Pal][Cha][Aib]NK[Aib]TRQR[Cha]-NH2; SMILES CCCC[C@H](NC(=O)[C@H]1CCCN1C(=O)[C@H](CCC(=O)O)NC(=O)c1ccncc1)C(=O)N[C@@H](Cc1ccncc1)C(=O)N[C@@H](CC1CCCCC1)C(=O)NC(C)(C)C(=O)N[C@@H](CC(N)=O)C(=O)N[C@@H](CCCCN)C(=O)NC(C)(C)C(=O)N[C@H](C(=O)N[C@@H](CCCNC(=N)N)C(=O)N[C@@H](CCC(N)=O)C(=O)N[C@@H](CCCNC(=N)N)C(=O)N[C@@H](CC1CCCCC1)C(N)=O)[C@@H](C)O) [compound No. 228]”, the “GBA EC50 Ratio” value with human Y2 receptor [1] is recorded as 5.7. Further, the “RBA IC50 Ratio” value in the test with human Y2 receptor [2] came to 8.1.
“4-Pyridinecarbonyl-[Glu23, D-Pro24, Pya(4)26, Cha27,36, Aib28,31, Lys30]-PYY(23-36) (Isonicotinoyl-E[dP]R[4Pal][Cha][Aib]NK[Aib]TRQR[Cha]-NH2; SMILES C[C@@H](O)[C@H](NC(=O)C(C)(C)NC(=O)[C@H](CCCCN)NC(=O)[C@H](CC(N)=O)NC(=O)C(C)(C)NC(=O)[C@H](CC1CCCCC1)NC(=O)[C@H](Cc1ccncc1)NC(=O)[C@H](CCCNC(=N)N)NC(=O)[C@H]1CCCN1C(=O)[C@H](CCC(=O)O)NC(=O)c1ccncc1)C(=O)N[C@@H](CCCNC(=N)N)C(=O)N[C@@H](CCC(N)=O)C(=O)N[C@@H](CCCNC(=N)N)C(=O)N[C@@H](CC1CCCCC1)C(N)=O) [compound No. 215]”: the “GBA EC50 Ratio” value with human Y2 receptor [1] was determined as 1.8. Also, the “RBA IC50 Ratio” value with human Y2 receptor [2] turned out to be 1.9.
For “Ac-[Aad23, D-Pro24, Cha27,28,36, Aib31]-PYY(23-36) (Ac-[Aad][dP]RH[Cha][Cha]NL[Aib]TRQR[Cha]-NH2; SMILES CC(=O)N[C@@H](CCCC(=O)O)C(=O)N1CCC[C@@H]1C(=O)N[C@@H](CCCNC(=N)N)C(=O)N[C@@H](Cc1c[nH]cn1)C(=O)N[C@@H](CC1CCCCC1)C(=O)N[C@@H](CC1CCCCC1)C(=O)N[C@@H](CC(N)=O)C(=O)N[C@@H](CC(C)C)C(=O)NC(C)(C)C(=O)N[C@H](C(=O)N[C@@H](CCCNC(=N)N)C(=O)N[C@@H](CCC(N)=O)C(=O)N[C@@H](CCCNC(=N)N)C(=O)N[C@@H](CC1CCCCC1)C(N)=O)[C@@H](C)O) [compound No. 159]”, in the test with human Y2 receptor [1], the “GBA EC50 Ratio” value stood at 1.2. Besides, the “RBA IC50 Ratio” value in the test with human Y2 receptor [2] came to 2.8.
